Source: the Human Domainome abundance scans (Beltran et al. 2025)
± gives the uncertainty stated by the source.

B1: Kinesin-like protein KIF16B, residues 1213 to 1273; numbered along this chain, Q96L93 (parent)
chain: ETWTVFRRYSRFREMHKTLKLKYAELAALEFPPKKLFGNKDERVIAERRSHLEKYLRDFFS

Variants of: B1
Experiment: abundance fitness (aPCA) (normalised: wild type 0, dead -1); higher = more abundant; growth selection in yeast, the domain comes from the species named
Conditions: Homo sapiens

ETWTVFRRYSRFREMHKTLKLKYAELAALEFPPKKLFGNKDERVIAERRSPLEKYLRDFFS [H51P] and ETWTVFRRYSRFREMHKTLKLKYAELAALEFPPKKLFGNKDERVIAERRSNLEKYLRDFFS [H51N] are within error of each other in abundance fitness: -0.164 ± 0.22 for the first, -0.436 ± 0.38 for the second.

Compared with ETWTVFRRYSRFREMHKTLKLKYAELAALEFPPKKLFGNKDERVIAERRSELEKYLRDFFS [H51E], ETWTVFRRYSRFREMHKTLKLKYAELAALEFPPKKLFGNKDERVIAERRSGLEKYLRDFFS [H51G] is higher in abundance fitness: -0.379 ± 0.083 for the first, 0.248 ± 0.046 for the second.

Compared with ETWTVFRRYSRFREMHKTLKLKYAELAALEFPPKKLFGNKDERVIAERRSALEKYLRDFFS [H51A], ETWTVFRRYSRFREMHKTLKLKYAELAALEFPPKKLFGNKDERVIAERRSCLEKYLRDFFS [H51C] is lower in abundance fitness: 0.043 ± 0.07 for the first, -0.359 ± 0.22 for the second.

ETWTVFRRYSRFREMHKTLKLKYAELAALEFPPKKLFGNKDERVIAERRSQLEKYLRDFFS [H51Q] and ETWTVFRRYSRFREMHKTLKLKYAELAALEFPPKKLFGNKDERVIAERRSSLEKYLRDFFS [H51S] are within error of each other in abundance fitness: 0.002 ± 0.19 for the first, -0.047 ± 0.089 for the second.

Going from ETWTVFRRYSRFREMHKTLKLKYAELAALEFPPKKLFGNKDERVIAERRSLLEKYLRDFFS [H51L] to ETWTVFRRYSRFREMHKTLKLKYAELAALEFPPKKLFGNKDERVIAERRSDLEKYLRDFFS [H51D], the abundance fitness falls from -0.098 ± 0.081 to -0.778 ± 0.22.

ETWTVFRRYSRFREMHKTLKLKYAELAALEFPPKKLFGNKDERVIAERRSHLMKYLRDFFS [E53M] and ETWTVFRRYSRFREMHKTLKLKYAELAALEFPPKKLFGNKDERVIAERRSHLLKYLRDFFS [E53L] are within error of each other in abundance fitness: 0.309 ± 0.076 for the first, 0.352 ± 0.059 for the second.

First: ETWTVFRRYSRFREMHKTLKLKYAELAALEFPPKKLFGNKDERVIAERRSHLRKYLRDFFS [E53R]
Second: ETWTVFRRYSRFREMHKTLKLKYAELAALEFPPKKLFGNKDERVIAERRSHLAKYLRDFFS [E53A]
The abundance fitness of the first is higher: 0.412 ± 0.053 for the first, 0.191 ± 0.067 for the second.

ETWTVFRRYSRFREMHKTLKLKYAELAALEFPPKKLFGNKDERVIAERRSHLFKYLRDFFS [E53F] and ETWTVFRRYSRFREMHKTLKLKYAELAALEFPPKKLFGNKDERVIAERRSHLPKYLRDFFS [E53P] are within error of each other in abundance fitness: 0.243 ± 0.078 for the first, 0.228 ± 0.15 for the second.

ETWTVFRRYSRFREMHKTLKLKYAELAALEFPPKKLFGNKDERVIAERRSHLKKYLRDFFS [E53K] and ETWTVFRRYSRFREMHKTLKLKYAELAALEFPPKKLFGNKDERVIAERRSHLWKYLRDFFS [E53W] are within error of each other in abundance fitness: 0.391 ± 0.069 for the first, 0.378 ± 0.082 for the second.

ETWTVFRRYSRFREMHKTLKLKYAELAALEFPPKKLFGNKDERVIAERRSHLYKYLRDFFS [E53Y] and ETWTVFRRYSRFREMHKTLKLKYAELAALEFPPKKLFGNKDERVIAERRSHLVKYLRDFFS [E53V] are within error of each other in abundance fitness: 0.329 ± 0.1 for the first, 0.277 ± 0.053 for the second.

ETWTVFRRYSRFREMHKTLKLKYAELAALEFPPKKLFGNKDERVIAERRSHLCKYLRDFFS [E53C] and ETWTVFRRYSRFREMHKTLKLKYAELAALEFPPKKLFGNKDERVIAERRSHLHKYLRDFFS [E53H] are within error of each other in abundance fitness: 0.31 ± 0.13 for the first, 0.059 ± 0.15 for the second.

ETWTVFRRYSRFREMHKTLKLKYAELAALEFPPKKLFGNKDERVIAERRSHLTKYLRDFFS [E53T] and ETWTVFRRYSRFREMHKTLKLKYAELAALEFPPKKLFGNKDERVIAERRSHLGKYLRDFFS [E53G] are within error of each other in abundance fitness: 0.317 ± 0.097 for the first, 0.426 ± 0.047 for the second.

Compared with ETWTVFRRYSRFREMHKTLKLKYAELAALEFPPKKLFGNKDERVIAERRSHLIKYLRDFFS [E53I], ETWTVFRRYSRFREMHKTLKLKYAELAALEFPPKKLFGNKDERVIAERRSHLSKYLRDFFS [E53S] is higher in abundance fitness: 0.197 ± 0.11 for the first, 0.414 ± 0.06 for the second.

ETWTVFRRYSRFREMHKTLKLKYAELAALEFPPKKLFGNKDERVIAERRSHLNKYLRDFFS [E53N] and ETWTVFRRYSRFREMHKTLKLKYAELAALEFPPKKLFGNKDERVIAERRPHLEKYLRDFFS [S50P] are within error of each other in abundance fitness: 0.292 ± 0.28 for the first, 0.045 ± 0.17 for the second.

Compared with ETWTVFRRYSRFREMHKTLKLKYAELAALEFPPKKLFGNKDERVIAERRLHLEKYLRDFFS [S50L], ETWTVFRRYSRFREMHKTLKLKYAELAALEFPPKKLFGNKDERVIAERRQHLEKYLRDFFS [S50Q] is lower in abundance fitness: -0.042 ± 0.062 for the first, -0.545 ± 0.21 for the second.

First: ETWTVFRRYSRFREMHKTLKLKYAELAALEFPPKKLFGNKDERVIAERRFHLEKYLRDFFS [S50F]
Second: ETWTVFRRYSRFREMHKTLKLKYAELAALEFPPKKLFGNKDERVIAERREHLEKYLRDFFS [S50E]
The abundance fitness of the first is higher: -0.117 ± 0.29 for the first, -0.696 ± 0.12 for the second.

First: ETWTVFRRYSRFREMHKTLKLKYAELAALEFPPKKLFGNKDERVIAERRHHLEKYLRDFFS [S50H]
Second: ETWTVFRRYSRFREMHKTLKLKYAELAALEFPPKKLFGNKDERVIAERRYHLEKYLRDFFS [S50Y]
The abundance fitness of the first is higher: -0.039 ± 0.15 for the first, -0.66 ± 0.23 for the second.

ETWTVFRRYSRFREMHKTLKLKYAELAALEFPPKKLFGNKDERVIAERRKHLEKYLRDFFS [S50K] and ETWTVFRRYSRFREMHKTLKLKYAELAALEFPPKKLFGNKDERVIAERRGHLEKYLRDFFS [S50G] are within error of each other in abundance fitness: -0.133 ± 0.085 for the first, -0.1 ± 0.068 for the second.

Compared with ETWTVFRRYSRFREMHKTLKLKYAELAALEFPPKKLFGNKDERVIAERRAHLEKYLRDFFS [S50A], ETWTVFRRYSRFREMHKTLKLKYAELAALEFPPKKLFGNKDERVIAERRVHLEKYLRDFFS [S50V] is lower in abundance fitness: -0.213 ± 0.077 for the first, -0.36 ± 0.063 for the second.

ETWTVFRRYSRFREMHKTLKLKYAELAALEFPPKKLFGNKDERVIAERRWHLEKYLRDFFS [S50W] and ETWTVFRRYSRFREMHKTLKLKYAELAALEFPPKKLFGNKDERVIAERRCHLEKYLRDFFS [S50C] are within error of each other in abundance fitness: 0.117 ± 0.12 for the first, 0.256 ± 0.098 for the second.

ETWTVFRRYSRFREMHKTLKLKYAELAALEFPPKKLFGNKDERVIAERRTHLEKYLRDFFS [S50T] and ETWTVFRRYSRFREMHKTLKLKYAELAALEFPPKKLFGNKDERVIAERRNHLEKYLRDFFS [S50N] are within error of each other in abundance fitness: -0.056 ± 0.1 for the first, 0.05 ± 0.15 for the second.

ETWTVFRRYSRFREMHKTLKLKYAELAALEFPPKKLFGNKDERVIAERRDHLEKYLRDFFS [S50D] and ETWTVFRRYSRFREMHKTLKLKYAELAALEFPPKKLFGNKDERVIAERRRHLEKYLRDFFS [S50R] are within error of each other in abundance fitness: -0.11 ± 0.14 for the first, -0.301 ± 0.14 for the second.
